Experimental data taken from US20240287172A1 (SCIRHOM, published 2024).

Experiments:
[1] = target: T1, hiR2-FL-K536A-T7 (human, UniProt Q6PJF5 1-856); assay: FACS on MEF-DKO-hiR2-FL-K536A-T7 cells
T1 construct: on MEF-DKO cells
T1 sequence: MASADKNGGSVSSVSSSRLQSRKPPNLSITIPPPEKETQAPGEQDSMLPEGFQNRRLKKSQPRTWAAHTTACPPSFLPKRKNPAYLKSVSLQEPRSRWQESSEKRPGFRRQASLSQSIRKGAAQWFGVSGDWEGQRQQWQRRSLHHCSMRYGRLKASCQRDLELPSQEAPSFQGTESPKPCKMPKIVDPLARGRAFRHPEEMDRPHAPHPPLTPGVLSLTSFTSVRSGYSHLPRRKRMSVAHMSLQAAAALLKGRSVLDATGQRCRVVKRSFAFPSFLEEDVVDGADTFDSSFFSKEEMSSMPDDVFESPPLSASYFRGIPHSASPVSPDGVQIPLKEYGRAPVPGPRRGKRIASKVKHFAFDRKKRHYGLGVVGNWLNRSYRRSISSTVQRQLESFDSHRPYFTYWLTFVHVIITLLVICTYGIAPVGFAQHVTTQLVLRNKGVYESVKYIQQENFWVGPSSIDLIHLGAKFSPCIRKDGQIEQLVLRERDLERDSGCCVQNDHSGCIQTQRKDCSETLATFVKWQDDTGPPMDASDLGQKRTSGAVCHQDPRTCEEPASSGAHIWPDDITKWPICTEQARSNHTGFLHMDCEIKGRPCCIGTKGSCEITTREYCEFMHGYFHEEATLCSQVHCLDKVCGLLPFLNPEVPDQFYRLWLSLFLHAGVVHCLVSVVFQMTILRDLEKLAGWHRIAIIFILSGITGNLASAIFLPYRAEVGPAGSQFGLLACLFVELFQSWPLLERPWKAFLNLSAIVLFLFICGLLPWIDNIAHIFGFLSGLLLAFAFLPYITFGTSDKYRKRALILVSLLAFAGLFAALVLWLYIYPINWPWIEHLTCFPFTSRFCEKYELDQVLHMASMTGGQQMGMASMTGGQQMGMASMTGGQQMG

[2] = target: T2, hiR2-FL-T555A-T7 (human, UniProt Q6PJF5 1-856); assay: FACS on MEF-DKO cells expressing the variant, 3 µg/ml antibody
T2 sequence: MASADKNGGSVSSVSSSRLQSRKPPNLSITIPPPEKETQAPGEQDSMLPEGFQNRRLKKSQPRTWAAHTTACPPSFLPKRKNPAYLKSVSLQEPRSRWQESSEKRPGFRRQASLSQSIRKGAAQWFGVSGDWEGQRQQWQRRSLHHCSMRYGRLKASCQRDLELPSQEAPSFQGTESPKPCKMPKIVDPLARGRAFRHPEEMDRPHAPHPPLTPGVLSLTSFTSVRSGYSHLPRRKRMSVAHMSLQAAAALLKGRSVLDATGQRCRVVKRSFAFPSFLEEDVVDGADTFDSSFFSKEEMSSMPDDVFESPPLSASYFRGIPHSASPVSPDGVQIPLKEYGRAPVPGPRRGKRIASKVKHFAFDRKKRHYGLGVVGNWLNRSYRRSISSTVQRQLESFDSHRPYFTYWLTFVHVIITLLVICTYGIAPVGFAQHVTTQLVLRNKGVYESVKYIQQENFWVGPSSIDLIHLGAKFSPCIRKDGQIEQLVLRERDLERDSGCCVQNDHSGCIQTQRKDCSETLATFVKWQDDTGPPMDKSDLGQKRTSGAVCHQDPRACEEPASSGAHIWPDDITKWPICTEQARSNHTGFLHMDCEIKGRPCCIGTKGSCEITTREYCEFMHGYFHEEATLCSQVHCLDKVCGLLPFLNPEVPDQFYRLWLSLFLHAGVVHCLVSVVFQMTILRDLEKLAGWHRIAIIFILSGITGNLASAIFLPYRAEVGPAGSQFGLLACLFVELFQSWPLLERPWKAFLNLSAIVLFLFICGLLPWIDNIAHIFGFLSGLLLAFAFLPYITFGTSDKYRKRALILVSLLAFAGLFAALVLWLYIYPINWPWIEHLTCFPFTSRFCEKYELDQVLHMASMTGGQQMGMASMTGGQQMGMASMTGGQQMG
Outline: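 Cells stained with purified antibody at 3 μg/ml for 1 h on ice, then with PE-conjugated goat anti-mouse IgG F(ab′)2 (1:100) for 1 h on ice in the dark. Binding read by flow cytometry; buffer-only staining as control.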

B1: antibody 5 (antibody, V domains shown)
VH: QVTLKESGPGILQPSQTLSLTCSFSGFSLSTFGMGVGWIRQPSGKGLEWLAHIWWDDEKYYNSALKSRLTISKATSKNQAFLKIANVDTADTATYYCARISNYGSNYWYFNVWGTGTTVTVSS
VL: QVVLTQSPALMSASPGEKVTMTCSAGSSVSCMYWYQQKPGSSPRVLIYDTSNLASGVPARFTGSGSGTSYSLTISRMEAEDAASYYCQQWNSYPLTFGAGTKLELK
notes: mouse IgG, kappa light chain; also called clone #5; purified antibody 5
binding result [1]: no binding (tested: 3 µg/ml)

B2: antibody 3 (antibody, V domains shown)
VH: QVTLKESGPGILQPSQTLSLTCSFSGFSLTTFAMGIGWVRQPSGKGLEWLAHIWWDGEKYNNPVLKSRLTISKDTSKNQVFLRIANVDTPDTATYYCARISSIYYIIDNWGQGTSVTVSS
VL: DIVLTQSPATLSVTPGHSVSLSCRASQSISNNLHWYQKKSHESPRLLIKYVSQSISGIPSRFSGSGSGTDFTLSINSVETEDFGMYFCQQSYNWPLTFGAGTKLELK
notes: mouse IgG, kappa light chain; also called clone #3; purified antibody 3
loss of binding vs wild type [2]: ≥ 30%
